# Test results reported in paper PMC8629192 (bioRxiv, 2021).
# B1: LRRC15-His (natural protein)
# chain: YHGCPSECTCSRASQVECTGARIVAVPTPLPWNAMSLQILNTHITELNESPFLNISALIALRIEKNELSRITPGAFRNLGSLRYLSLANNKLQVLPIGLFQGLDSLESLLLSSNQLLQIQPAHFSQCSNLKELQLHGNHLEYIPDGAFDHLVGLTKLNLGKNSLTHISPRVFQHLGNLQVLRLYENRLTDIPMGTFDGLVNLQELALQQNQIGLLSPGLFHNNHNLQRLYLSNNHISQLPPSVFMQLPQLNRLTLFGNSLKELSPGIFGPMPNLRELWLYDNHISSLPDNVFSNLRQLQVLILSRNQISFISPGAFNGLTELRELSLHTNALQDLDGNVFRMLANLQNISLQNNRLRQLPGNIFANVNGLMAIQLQNNQLENLPLGIFDHLGKLCELRLYDNPWRCDSDILPLRNWLLLNQPRLGTDTVPVCFSPANVRGQSLIIINVNVAVPSVHVPEVPSYPETPWYPDTPSYPDTTSVSSTTELTSPVEDYTDLTTIQVTDDRSVWGMTQAQSG
# Biological target: SARS-CoV-2 spike RBD-Fc recombinant protein (used for ELISA) (SARS-CoV-2, UniProt P0DTC2)
# Assay: ELISA
binder,measurement,value
B1,binding result,binds
